Laboratory results as given in the supplement of paper PMC9170038.

System: MS2 coat protein
Experiment: apparent KD of MS2 coat protein; designed switch direction (-1 OFF switch, 1 ON switch): -1; higher = weaker reporter binding
Method in brief: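 Each step of the titration lasted 0.8–1.5 h at the lowest concentration and 10–20 min at the highest. The protein, SNAP-549-labelled MS2 coat protein, went from 0.7 or 1.5 nM doubling to 3 µM over RNA switches transcribed on Illumina chips by stalled E. coli RNA polymerase. Normalised cluster fluorescence was curve-fitted, and the per-design median over clusters is given as apparent KD.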

[1] = Eterna round: R95, input ligand: microRNA oligo, concentration not stated
[2] = input ligand: microRNA oligo, concentration not stated

Q: How did the “apparent KD of MS2 coat protein” value (input ligand: FMN 200 uM) turn out when “GUAAACGAUCAGGAUAUAUCAAAUCAUAGCUUGAUAGAAGGGAUCACAUGAGGAUCACCCAUGUGAUCUUCUUU [jl-ex6-4.15 ViennaUCT mod] (Eterna round: R97, puzzle: Exclusion 6)” was run?
A: 13.2 nM

Q: What about the “apparent KD of MS2 coat protein” value (input ligand: none) of the same sequence?
A: 13.9 nM

Q: For “GUAAACGCAGAGGAUAUUUCAGAUCAAAGCUGCAAAGAAGGCUGCACAUGAGGAUCACCCAUGUGGUCUUCAAG [Mat - Exclusion 6 - JL Mod - D10] (Eterna round: R97, puzzle: Exclusion 6)”, which “apparent KD of MS2 coat protein” value (input ligand: FMN 200 uM) is on record?
A: 297 nM

Q: What about the “apparent KD of MS2 coat protein” value (input ligand: none) of the same sequence?
A: 24.7 nM

Q: Which “apparent KD of MS2 coat protein” value [1] does the source give for “GUAAAGUGAGGAUAUGGUAAAUUAAUUAUUAAUUAAUUAAUCCAGAAGGCACAUGAGGAUCACCCAUGUAUAUG [Mat - Exclusion 4 - D88] (puzzle: Exclusion 4)” here?
A: 30 nM

Q: What does the source list for “GUAACAACUAGAGGAUAUCAGCACGAUUAGUGCUGAGAAGGCUAGAGUUACAUGAGGAUCACCCAUGUCUAGAGAUCAUUAAUU [ENG1/13-A1] (Eterna round: R96, puzzle: Exclusion NG 1)”?
A: apparent KD of MS2 coat protein (input ligand: FMN 200 uM): 155 nM; apparent KD of MS2 coat protein [2]: 53.2 nM; apparent KD of MS2 coat protein (input ligand: none): 79.7 nM

Q: “GUAAGAUCCGUCAGGAUAUAUGCCCAAGGAGGGACGUAGAAGGGACAUGAGGAUCACCCAUGUACCUCAAGGAU [Eternabot (L1) Solution 97] (Eterna round: R97, puzzle: Brourd's mod of Exclusion 4)” was tested. Which “apparent KD of MS2 coat protein” value (input ligand: FMN 200 uM) did it give?
A: 17.6 nM

Q: What about the “apparent KD of MS2 coat protein” value (input ligand: none) of the same sequence?
A: 16.1 nM

Q: For “GUAAUGUGAGGAUAUGGUAAAGAUAAGAUGAUGAAAGAACUCCAGAAGGCACAUGAGGAUCACCCAUGUAGAUG [Mat - Exclusion 4 - Mod of JL - D27] (puzzle: Exclusion 4)”, which “apparent KD of MS2 coat protein” value [1] is on record?
A: 26.1 nM

Q: What does the source list for “GUACUACAUGAGGAUCACCCAUGUCAGGAUAUUUGAAUUUCAUCAAAAGAUGAAAUUCGGAGAAGGGACAGUAC [Omei Ex1 A7] (Eterna round: R97, puzzle: Exclusion 1)”?
A: apparent KD of MS2 coat protein (input ligand: FMN 200 uM): 31.1 nM; apparent KD of MS2 coat protein (input ligand: none): 21.7 nM

Q: With “GUAGAGUAAGGAUAUAGUGAAUAGGAUAGAAUGGUUAGAAACUAGAAGGUACAUGAGGAUCACCCAUGUAAUGU [Excluse me!!!! 21 - Jieux - Exclusion 4] (puzzle: Exclusion 4)” as the sequence, how does the “apparent KD of MS2 coat protein” value [1] read?
A: 20.4 nM

Q: How did the “apparent KD of MS2 coat protein” value [1] turn out when “GUAGAGUAAGGAUAUUGUGAAUAGGAUAGAAUGGUUAGAAACAAGAAGGUACAUGAGGAUCACCCAUGUAAUGU [Excluse me!!!! 20 - Jieux - Exclusion 4] (puzzle: Exclusion 4)” was run?
A: 21.3 nM

Q: For “GUAGAGUCAGGAUAUACAAGAUCGAUAGAUCGGCGGUCCAUACAUGAGGAUCACCCAUGUAGAAGGGACUCUAC [Mat - Exclusion 2 - Eli Mod - D5] (Eterna round: R97, puzzle: Exclusion 2)”, which “apparent KD of MS2 coat protein” value (input ligand: FMN 200 uM) is on record?
A: 514 nM

Q: And the “apparent KD of MS2 coat protein” value (input ligand: none)?
A: 27.2 nM

Q: Which “apparent KD of MS2 coat protein” value (input ligand: FMN 200 uM) does the source give for “GUAGAGUCAGGAUAUACGAGAUCGAAAGAUCAAAGAUCCUUACAUGAGGAUCACCCAUGUAGAAGGGACUCUAC [Eli x2 4.14] (Eterna round: R97, puzzle: Exclusion 2)” here?
A: 574 nM

Q: What about the “apparent KD of MS2 coat protein” value (input ligand: none) of the same sequence?
A: 37.1 nM

Q: How did the “apparent KD of MS2 coat protein” value (input ligand: FMN 200 uM) turn out when “GUAGAGUCAGGAUAUACGGGAUCGAAAGAUCGGCGAUCCAUACAUGAGGAUCACCCAUGUAGAAGGGACUCUAC [Omei mod 10 to Eli's favorate candidate (ch.parushev)] (Eterna round: R97, puzzle: Exclusion 2)” was run?
A: 189 nM

Q: What about the “apparent KD of MS2 coat protein” value (input ligand: none) of the same sequence?
A: 22.7 nM

Q: “GUAUAACAUGUAGGAUAUGCGUGGCGAAGCUAUGCAGAAGGACAUGAGGAUCACCCAUGUUAUAGCGUCUGCGUACAGAUGCUA [Mat - Exclusion NG 1 - Mod of JL - D93] (Eterna round: R96, puzzle: Exclusion NG 1)” was tested. Which “apparent KD of MS2 coat protein” value (input ligand: FMN 200 uM) did it give?
A: 204 nM

Q: And the “apparent KD of MS2 coat protein” value [2]?
A: 26.2 nM

Q: What about the “apparent KD of MS2 coat protein” value (input ligand: none) of the same sequence?
A: 24.5 nM

Q: “GUAUAUAGUGUGAGGAUAUGCUGGUCCUUGGAUCAGCAGAAGGCACAUGAGGAUCACCCAUGUAGUUUAUUAUU [Mat - Exclusion 4 - JL Mod - D9] (puzzle: Brourd's mod of Exclusion 4)” was tested. Which “apparent KD of MS2 coat protein” value [1] did it give?
A: 24.1 nM

Q: With “GUAUCGUGAGGAUAUCAUGAUUGACUUUUGUUUUGUCAGCGUGAGAAGGCACAUGAGGAUCACCCAUGUGAUUA [Ex4 - 3 - 9] (puzzle: Exclusion 4)” as the sequence, how does the “apparent KD of MS2 coat protein” value [1] read?
A: 22.3 nM

Q: “GUAUGUUCCUGAGGAUAUCGAGCCAUCGACCGCCGAGAAGGCAGAGACAUGAGGAUCACCCAUGUGAAGUAAUGGCGAUGAGAA [Eternabot solution 13] (Eterna round: R96, puzzle: Exclusion NG 1)” was tested. Which “apparent KD of MS2 coat protein” value (input ligand: FMN 200 uM) did it give?
A: 15.4 nM

Q: And the “apparent KD of MS2 coat protein” value [2]?
A: 10.8 nM

Q: And the “apparent KD of MS2 coat protein” value (input ligand: none)?
A: 17 nM

Q: What does the source list for “GUCACAUGGACAUAGGAUCACAUGAGGAUCACCCAUGUGACUAACAAGCUUUUUGUUCGUCUUAUGUCCAUGUGAAA [Stov1/15-B2] (Eterna round: R97, puzzle: Sensor, turn-off variant 1)”?
A: apparent KD of MS2 coat protein (input ligand: FMN 200 uM): 15.3 nM; apparent KD of MS2 coat protein (input ligand: none): 11.2 nM

Q: For “GUCACUAGAGGAUAUACAAUGGUAUAUGAUCCUAGAGACAUACAUGAGGAUCACCCAUGUAGAAGGCUAGUAAU [Exclusion 2 - 6] (puzzle: Exclusion 2)”, which “apparent KD of MS2 coat protein” value [1] is on record?
A: 68.7 nM

Q: How did the “apparent KD of MS2 coat protein” value (input ligand: FMN 200 uM) turn out when “GUCAGACGAGGAUAUGAUAAUUAAUACAUGAGGAUCACCCAUGUAAUACUGAUCCAUGGAUCAGAAGGCGUCUGAC [E5/4-A4] (Eterna round: R97, puzzle: Exclusion 5)” was run?
A: 42.7 nM

Q: What about the “apparent KD of MS2 coat protein” value (input ligand: none) of the same sequence?
A: 17.6 nM
